Data as given in PMC9019090.

Biological target: FBXW7 (FBXW7α) (UniProt Q969H0)
Assay: Co-IP and reciprocal co-IP, immunoblot
Settings: reference: Flag-ERRα wild type; sites S19,S22,S26

binding against the reference: weaker
Substance: ERRα (from UniProt P11474) Flag-ERRα 3SA (S19A+S22A+S26A)
